Tested on: HEK293T
Test: median enrichment of reporter reads in eGFP-reduced (low/intermediate) vs eGFP-high sorted cells (eGFP-extension fusion abundance) (ratio); higher = stronger loss of eGFP-fusion protein abundance (more destabilising extension)
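Further: lentiviral eGFP-IRES-mCherry reporter pool sorted by FACS 96 h post-transduction, gated on mCherry-high cells, Illumina read counts normalized per million, median across four biological replicates.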

SRMGLSL [APOBEC3G]
median enrichment: 0.634

SRNMSSQGIETALNSLTSRL [PCLO]
median enrichment: 3.6

SRPEVQATLASGTPPRL [RTP5]
median enrichment: 0.536

SRPHTPALTQLLLGT [GRM2]
median enrichment: 5.49

SRPWSESAPVGILPPPCWPPFSPQPLR [PGAP3]
median enrichment: 14.1

SRR [TMEM52]
median enrichment: 0.803

SRRRLGLCSQGLWLMMIDAPFSHALSSHLASAGQNPSPDVCNLCLEYLGVVEEQIIPSKHQALGFLEQAESQ [USP39]
median enrichment: 3.94

SRSRDDALFSAIYPKLFQI [PCDHB5]
median enrichment: 2.76

SRVSGKKHSCMSICSWNQFL [STYK1]
median enrichment: 11

SRY [IL32]
median enrichment: 0.749

SSAYLGLPKCWDYRREPNAQPRGVVFRDISESEGETQD [APOC1]
median enrichment: 1.19

SSCCHQLALWPRARCLPFMFPHLQSELVVPDDLRSHDLLTCPMILYFVGRSIKQLLLLLCANHSCNFCSAYLPLFEKHAKGSF [ADAMTSL1]
median enrichment: 4.11

SSFIGLNTVCFYQSGHWHCLLFYNHVDTSISKENLSTR [RARS]
median enrichment: 8.65

SSKEVILFCLLIIM [CHMP2B]
median enrichment: 6.82

SSLPWAG [TMEM266]
median enrichment: 5.32

SSMMHGDFHFHIFPFFCFCFSRNGGNPVYSMPVLSYSSLLLYILLLYQKN [HIVEP2]
median enrichment: 33.7

SSNLF [ADPRM]
median enrichment: 0.584

SSS [Ser03]
median enrichment: 0.352

SSSAC [BPTF]
median enrichment: 0.596

SSSS [Ser04]
median enrichment: 0.471

SSSSLFLGNSLLFLPHGRCK [MAX]
median enrichment: 4.93

SSSSS [Ser05]
median enrichment: 0.298

SSSSSS [Ser06]
median enrichment: 0.35

SSSSSSS [Ser07]
median enrichment: 0.279

SSSSSSSS [Ser08]
median enrichment: 0.512

SSSSSSSSS [Ser09]
median enrichment: 0.295

SSSSSSSSSS [Ser10]
median enrichment: 0.553

STARIKNMFPCLSDTSLLDEARKIYMKILKIHIADFMEWTSCISTEKQQHNNTKILGTLK [CDKN1B]
median enrichment: 38.1

STFKAFVK [GATA1]
median enrichment: 0.381

STFLHTQPLLYSTSCPGASHTPELICIILTIFSLLSPFFLFERPSLISKM [TRIM5]
median enrichment: 16.6

STIEICSEM [PCDH11Y]
median enrichment: 0.758

STL [PGRMC2]
median enrichment: 0.374

STRRPSPQKP [ERBB2]
median enrichment: 0.591

STSAHILESYYS [ACADL]
median enrichment: 0.545

STSHAYQVAELGPLGQGAQATSSFVVTKQGSPFPFLLPYFVQRTRVIYIYICICLYPSPHLSDSALGTQLWAARGAVPCGSSC [SCAMP5]
median enrichment: 5.87

STSPAPLRTPPRLDGWAHASHWGPGSRRWAPTLGPRGAANHTGLRPSYPAPSPSTSTFTSPPFHFFLYVFFLLETDSIHIEYN [JUNB]
median enrichment: 4.9

STVKEGVFVWTR [DSC1]
median enrichment: 2.35

SVAGGVTARSPDFTSFGPVLL [UTP14A]
median enrichment: 0.633

SVAHSGKGVLCEHVEA [GATC]
median enrichment: 0.756

SVAMVKVSVAAAAMASRRRCWDCFALEPASGCPLQWLCYCMDCILDFMCMSQ [DYNLL2]
median enrichment: 11

SVCAGDQINRLGCAK [NOSIP]
median enrichment: 1.17

SVDTPAPVGMDGPDFMASGTWAQRGACGRGWENKVQGRDQTAASLYMPS [ITIH3]
median enrichment: 32.4

SVFGKQQRASPLPGGLPCRFWASFPCLSLFRCAFHL [MAP2K1]
median enrichment: 12.4

SVGEWAGMCILLPNSSIQDCAHIRSTRTSSHQHKNINRNAALSTV [WFDC10A]
median enrichment: 5.12

From the supplement of paper PMC11502859
